According to US20260022396A1, “GENETIC CIRCUITS” (FONDAZIONE TELETHON ETS, priority 2022, published 2026):

Assays:
Type in all cases: cell-based, human
[1] = test system: mCherry expression in HEK293T cells; assay: pCMV/TO repression by rtTA-VPR, mCherry positive cells by flow cytometry (Example 1); conditions: presence of doxycycline (1000 ng/ml), rtTA-VPR co-transfected
Experimental: Flow Cytometry. Cells were collected 48 hours after transfection, washed and resuspended with PBS (Euroclone). Flow Cytometry analysis were carried out using an Accuri C6 (BD Biosciences), analyzing 10000 cells for each sample. A 488-nm laser with a 670 nm LP filter were used to excite and detect mCherry fluorescence.
HEK293T cells were transfected with a plasmid encoding the pCMV/TO promoter driving the expression of the fluorescent protein mCherry, and with a plasmid encoding the rtTA-VPR transcription factor driven by the strong constitutive pCMV promoter. A condition treated in the same way but without rtTA-VPR transfection was used as a negative control to account for any doxycycline treatment bias on mCherry expression. The percentage of mCherry positive cells was quantified through flow cytometry analysis in the absence and presence (1000 ng/ml) of doxycycline. The results of this experiment are shown in FIG. 3, where it can be appreciated that pCMV/TO efficiently represses the expression of the mCherry almost 25 times at the transcriptional level in the presence of doxycycline. pCMV/TO is efficiently repressed by the rtTA-VPR in the presence of doxycycline. Percentual mean values of at least three biological replicates are shown. Error bars indicate standard error.

[2] = test system: Firefly Luciferase driven by CMV/2B promoter in HEK293T cells; assay: CMV/2B promoter repression by VPR-dCas9-N8 and gRNA_B, Luc assay (Example 12); conditions: VPR-dCas9-N8 with gRNA_B vs scramble gRNA_AB
Experimental: Luciferase assay. The cells were collected 48 hours after transfection and lysed with 25 μL of 5×Passive Lysis Buffer ([…]) diluted in water. Firefly Luciferase and Renilla Luciferase expression were measured using the Dual Luciferase Assay (Promega) on a Glomax Explorer plate reader (Promega). Firefly Luciferase Arbitrary Units (fLuc [A.U.]) were calculated by normalizing each sample's Firefly Luciferase activity to the constitutive Renilla activity detected in the same sample. Relative fLuc [A.U.] values have been calculated by dividing each sample's Firefly Luciferase Arbitrary Units by the Firefly Luciferase Arbitrary Units of the sample with no Doxycycline induction, in the case of Doxycycline dose-response curves. In the case of Shield1 treatment, Relative fLuc [A.U.] values have been obtained by dividing each sample's Firefly Luciferase Arbitrary Units by the Firefly Luciferase Arbitrary Units of the sample treated with the maximum dose of Shield1 used, 1000 nM. Regarding experiments comprising Gaussia Luciferase and RedFireFly Luciferase, cells expressing those luciferases were harvested 48 h after transfection. Cells were disrupted with 100 μL/well of 1×Cell Lysis buffer and shaken for 15 min. Luciferase activity was measured using Pierce™ Gaussia-Firefly Luciferase Dual Assay Kit (ThermoFisher Scientific) according to the manufacturer's instructions. […]

[3] = test system: Gaussia luciferase transcript harboring a Direct Repeat in its 3′UTR, HEK293T cells; assay: CasRx repression of Gaussia luciferase reporter with or without Direct Repeat (Example 2)
Experimental: Luciferase assay. The cells were collected 48 hours after transfection and lysed with 25 μL of 5×Passive Lysis Buffer ([…]) diluted in water. Firefly Luciferase and Renilla Luciferase expression were measured using the Dual Luciferase Assay (Promega) on a Glomax Explorer plate reader (Promega). Firefly Luciferase Arbitrary Units (fLuc [A.U.]) were calculated by normalizing each sample's Firefly Luciferase activity to the constitutive Renilla activity detected in the same sample. Relative fLuc [A.U.] values have been calculated by dividing each sample's Firefly Luciferase Arbitrary Units by the Firefly Luciferase Arbitrary Units of the sample with no Doxycycline induction, in the case of Doxycycline dose-response curves. […] Luciferase activity was measured using Pierce™ Gaussia-Firefly Luciferase Dual Assay Kit (ThermoFisher Scientific) according to the manufacturer's instructions.
The findings of Example 1 were further confirmed by transfecting HEK293T cells with an increasing molar ratio of a plasmid encoding a Gaussia luciferase reporter gene, with or without Direct Repeats in its 3′UTR and a plasmid encoding the CasRx endoribonuclease. […] At least, three biological replicates were analyzed for each condition. Relative gLuc A.U. is calculated as the ratio between the gLuc A.U. values obtained transfecting the CasRx against the one which wasn't; this last corresponds to 1 gLuc A.U.

[4] = test system: Gaussia Luciferase (gLuc) transcripts in HEK293 cells; assay: Mutual inhibition CasRx / gLuc transcripts with no, one or four DR (Example 13)
Experimental: In order to confirm the mechanism of inhibition mediated by the output species “Z” on the repressor species “Y” in genetic circuits according to preferred embodiments of the invention, HEK293 cells were co-transfected with CasRx endoribonuclease (species Y) and Gaussia Luciferase (gLuc) transcripts, the latter bearing in the 3′UTR either no Direct Repeat (DR), one DR, or four tandem DR motifs (4×DRs). The hypothesis tested was that upon CasRx binding, only one DR motifs would effectively contribute to transcript cleavage and subsequent degradation. Therefore, in transcripts bearing multiple DR motifs, the remaining DR motifs, not contributing to transcript cleavage, would act as decoys, sequestering active CasRx from the unbound pool. As a result, the CasRx repression efficacy on gLuc expression should decrease.
The luciferase emission of each sample was measured to quantify the expression of the gLuc at increasing amounts of co-transfected plasmid encoding the CasRx. […] (FIG. 25). Increasing the amount of DR copies in the 3′UTR thus enhances the “sponge” effect, inhibiting the cleavage efficacy of CasRx.

B1: pCMV/TO: modified CMV promoter bearing two Tetracycline Operon (TO) sequences, SEQ ID NO: 8 (nucleic acid)
DNA: CGTTACATAACTTACGGTAAATGGCCCGCCTGGCTGACCGCCCAACGACCCCCGCCCATTGACGTCAATAATGACGTATGTTCCCATAGTAACGCCAATAGGGACTTTCCATTGACGTCAATGGGTGGAGTATTTACGGTAAACTGCCCACTTGGCAGTACATCAAGTGTATCATATGCCAAGTACGCCCCCTATTGACGTCAATGACGGTAAATGGCCCGCCTGGCATTATGCCCAGTACATGACCTTATGGGACTTTCCTACTTGGCAGTACATCTACGTATTAGTCATCGCTATTACCATGGTGATGCGGTTTTGGCAGTACATCAATGGGCGTGGATAGCGGTTTGACTCACGGGGATTTCCAAGTCTCCACCCCATTGACGTCAATGGGAGTTTGTTTTGGCACCAAAATCAACGGGACTTTCCAAAATGTCGTAACAACTCCGCCCCATTGACGCAAATGGGCGGTAGGCGTGTACGGTGGGAGGTCTATATAAGCAGAGCTCTCCCTATCAGTGATAGAGATCTCCCTATCAGTGATAGAGA
repression of mCherry expression [1]: ~25 times

B2: CMV/2B: CMV promoter with gRNA_B binding sites downstream of the TATA box, repressed by VPR-dCas9-N8, SEQ ID NO: 48 (nucleic acid)
DNA: CGTTACATAACTTACGGTAAATGGCCCGCCTGGCTGACCGCCCAACGACCCCCGCCCATTGACGTCAATAATGACGTATGTTCCCATAGTAACGCCAATAGGGACTTTCCATTGACGTCAATGGGTGGAGTATTTACGGTAAACTGCCCACTTGGCAGTACATCAAGTGTATCATATGCCAAGTACGCCCCCTATTGACGTCAATGACGGTAAATGGCCCGCCTGGCATTATGCCCAGTACATGACCTTATGGGACTTTCCTACTTGGCAGTACATCTACGTATTAGTCATCGCTATTACCATGGTGATGCGGTTTTGGCAGTACATCAATGGGCGTGGATAGCGGTTTGACTCACGGGGATTTCCAAGTCTCCACCCCATTGACGTCAATGGGAGTTTGTTTTGGCACCAAAATCAACGGGACTTTCCAAAATGTCGTAACAACTCCGCCCCATTGACGCAAATGGGCGGTAGGCGTGTACGGTGGGAGGTCTATATAAGCAGAGCTGCCGTCTTCCGTTTCCACATCTTCACGGATACCAAGGTGGCACCGGTTTGATTGCACAGCCCGTCTTCCGTTTCCACATCTTCACGG
percentage of repression of the CMV/2B [2]: around 60%

B3: CasRx: CRISPR-Cas RNase derived from Ruminococcus flavefaciens, SEQ ID NO: 2 (protein)
chain: IEKKKSFAKGMGVKSTLVSGSKVYMTTFAEGSDARLEKIVEGDSIRSVNEGEAFSAEMADKNAGYKIGNAKFSHPKGYAVVANNPLYTGPVQQDMLGLKETLEKRYFGESADGNDNICIQVIHNILDIEKILAEYITNAAYAVNNISGLDKDIIGFGKFSTVYTYDEFKDPEHHRAAFNNNDKLINAIKAQYDEFDNFLDNPRLGYFGQAFFSKEGRNYIINYGNECYDILALLSGLRHWVVHNNEEESRISRTWLYNLDKNLDNEYISTLNYLYDRITNELTNSFSKNSAANVNYIAETLGINPAEFAEQYFRFSIMKEQKNLGFNITKLREVMLDRKDMSEIRKNHKVFDSIRTKVYTMMDFVIYRYYIEEDAKVAAANKSLPDNEKSLSEKDIFVINLRGSFNDDQKDALYYDEANRIWRKLENIMHNIKEFRGNKTREYKKKDAPRLPRILPAGRDVSAFSKLMYALTMFLDGKEINDLLTTLINKFDNIQSFLKVMPLIGVNAKFVEEYAFFKDSAKIADELRLIKSFARMGEPIADARRAMYIDAIRILGTNLSYDELKALADTFSLDENGNKLKKGKHGMRNFIINNVISNKRFHYLIRYGDPAHLHEIAKNEAVVKFVLGRIADIQKKQGQNGKNQIDRYYETCIGKDKGKSVSEKVDALTKIITGMNYDQFDKKRSVIEDTGRENAEREKFKKIISLYLTVIYHILKNIVNINARYVIGFHCVERDAQLYKEKGYDINLKKLEEKGFSSVTKLCAGIDETAPDKRKDVEKEMAERAKESIDSLESANPKLYANYIKYSDEKKAEEFTRQINREKAKTALNAYLRNTKWNVIIREDLLRIDNKTCTLFRNKAVHLEVARYVHAYINDIAEVNSYFQLYHYIMQRIIMNERYEKSSGKVSEYFDAVNDEKKYNDRLLKLLCVPFGYCIPRFKNLSIEALFDRNEAAKFDKEKKKVSGNS
post-transcriptional inhibition of luciferase expression ([3]; 10 times molar excess of CasRx): ~200 folds
expression of Gaussia luciferase with DR in 3′UTR ([3]; equimolar amount of plasmid encoding CasRx, relative to no CasRx): 5%
decrease of gLuc expression ([4]; transcript having one DR, increasing amount of co-transfected CasRx): ~2 log
luciferase values ([4]; transcript with 4×DRs, presence of CasRx): higher luciferase values in the presence of CasRx compared to a single DR
